In the supplement of paper PMC12042874:
± gives the uncertainty stated by the source.

Experiment: amyloid nucleation score (Sup35N fusion, yeast selection) (log enrichment); library NNK1; higher = more nucleation; inactive = no reads after selection
Summary of the method: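 Peptides of 20 random codons fused to Sup35N were expressed in psi-negative yeast, induced 24 hours with 100 μM copper sulfate, then grown 7 days at 30°C on medium lacking adenine and uracil. Input and output plasmid inserts were Illumina-sequenced. Nucleation score is the DiMSum log enrichment of output over input reads, centred on the mode score of non-aggregating sequences, excluding sequences with under 100 input reads. Random libraries had three technical output replicates.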

Substance	amyloid nucleation score
SDGQNRTTMTYFPSVGWVSS	-1.98 ± 2.7
SDLCSLLASQRFLRRSGYKL	inactive
SDLLCLLVKDIIYFFVYLHS	1.96 ± 0.53
SDVGLGNKKSWGVRAVCLDE	0.452 ± 1.2
SDYTLEGLIVFPCCVLLHVR	0.381 ± 0.39
SECSINRWF	0.965 ± 0.76
SEDVLIPAGRCPL	0.845 ± 0.7
SEGWHGPGARVCLVFKNSRV	0.286 ± 0.61
SEICLLVSSKSGHDAQSTIS	-0.011 ± 1.2
SELEIA	inactive
SELPVTGWLLIFLGELTWS	-0.88 ± 1.3
SELYLFSSRGIYQSTRLRLR	-0.147 ± 0.81
SEMLSLKIGQGTVTPFNFWM	-0.09 ± 1.2
SEPEKG	-0.463 ± 0.43
SESYEFVVHLHMESLRKLN	-0.245 ± 0.71
SETYSSVAWRTMVVAAELVD	0.822 ± 0.95
SEYLASMAVTRFLGIGWMNS	0.548 ± 0.57
SFCLAVGPNLMTIGICMLQQ	inactive
SFCVFLMDMSRIGPETLSEW	4.95 ± 0.076
SFDRLMCRAM	0.688 ± 0.88
SFEKKSVPNSANLGATVLPN	0.196 ± 0.38
SFILCGISRSYQMLLMTRYL	6.09 ± 0.068

Substance	amyloid nucleation score
SFLDMSTKVEYESIWTSTVA	0.568 ± 0.45
SFNWPGFPDCFGPFRAVFIS	-0.61 ± 1.1
SFNYRIAFFSRYRPYMGSLG	1.76 ± 0.37
SFRCDVD	-0.217 ± 0.55
SFRFNGGTFVHSSKTKP	0.441 ± 0.3
SFRIVLLPPF	2.64 ± 0.26
SFSVSLTTYVYYFICHYAGI	1.96 ± 0.13
SFSYLIFTTVLLVWW	0.549 ± 0.34
SFTWFVTAANYKW	1.8 ± 0.35
SFVLGYSFLRKSCWFNVVTL	inactive
SFVWLR	2.67 ± 0.37
SFWWSDATMFEFVKGSRSGK	inactive
SFYQAYYVACCKYNVEY	5.96 ± 0.063
SGCLLSDGEF	0.046 ± 0.32
SGCVQDCSLKRIFLMPDKAL	-1.03 ± 0.55
SGEVLRPFAVLC	-0.061 ± 0.3
SGFIEVYVTIRFEFLYFHTP	0.131 ± 0.18
SGGCMDSKLSAVG	0.894 ± 0.51
SGHFILHGFYFCYKKCALIY	1.06 ± 0.81
SGILNAKLNSIGIEKSYAGF	-2.07 ± 2.4
SGKCIFSFE	-0.065 ± 0.34
SGKGFFDKSKFLVVMRGRTR	0.06 ± 0.39

Substance	amyloid nucleation score
SGKGMPNMNIPFHMWYQICY	0.001 ± 0.33
SGKSNSKPALEYYVSFFIDL	-0.52 ± 0.55
SGNGRRWSVLTDLAMLLLWL	-0.316 ± 0.41
SGRGWEAYIYCWVRLVRLVW	-0.463 ± 0.35
SGSVTVCGIATTPCNMGDRK	0.405 ± 0.79
SGSWNMCNHVRVNCYAIDKV	0.167 ± 0.3
SGWRSHKLLVSSSCMNARSY	-0.837 ± 0.48
SGYLVSSELREFQ	4.28 ± 0.11
SGYTGDDFQLKVEG	-0.307 ± 0.39
SGYVNFHL	inactive
SHASSSSSGCAYQSLVIWIN	4.45 ± 0.081
SHATFRVWHTVVVAV	-0.031 ± 0.34
SHENSRSNNISSHQP	-0.513 ± 0.34
SHNEG	1.34 ± 0.41
SHTWKGTSCAFAMHAQRGSQ	inactive
SHVEVDEEQVFSMSMVPTGE	-0.106 ± 0.46
SHVFAIRT	0.574 ± 0.77
SIFLSNILNDTWFLSALSCM	-1.41 ± 0.53
SIGCIYRSSKSGDVSISY	-0.057 ± 0.37
SIGYMNLDRVI	-0.944 ± 0.39
